{
  "source": "patent US20150344570A1",
  "about": "(published 2015)",
  "binders": {"B1": {"name": "GpH7-A5/GpH7-B3 variant I332_13S/GpL16-k0 (antibody, human IgG1, kappa)", "heavy 1": "not shown", "heavy 2": "not shown", "light": "DIVMTQSPLSLPVTPGEPASISCQASESLVHSNRNTYLHWYLQKPGQSPQLLIYKVSNRFSGVPDRFSGSGSGTDFTLKISRVEAEDVGVYYCSQNTHVPPTFGQGTKVEIERTVAAPSVFIFPPSDEQLKSGTASVVCLLNNFYPREAKVQWKVDNALQSGNSQESVTEQDSKDSTYSLSSTLTLSKADYEKHKVYACEVTHQGLSSPVTKSFNRGEC", "notes": "also called He Ab"}, "B2": {"name": "GpH7-A5/GpH7-B3 variant I332_19Q/GpL16-k0 (antibody, human IgG1, kappa)", "heavy 1": "not shown", "heavy 2": "not shown", "light": "B1 light", "notes": "also called He Ab"}, "B3": {"name": "GpH7-A5/GpH7-B3 variant I336_02A/GpL16-k0 (antibody, human IgG1, kappa)", "heavy 1": "not shown", "heavy 2": "not shown", "light": "B1 light", "notes": "also called He Ab"}, "B4": {"name": "GpH7-A5/GpH7-B3 variant I336_03V/GpL16-k0 (antibody, human IgG1, kappa)", "heavy 1": "not shown", "heavy 2": "not shown", "light": "B1 light", "notes": "also called He Ab"}, "B5": {"name": "GpH7-A5/GpH7-B3 variant I336_09D/GpL16-k0 (antibody, human IgG1, kappa)", "heavy 1": "not shown", "heavy 2": "not shown", "light": "B1 light", "notes": "also called He Ab"}, "B6": {"name": "GpH7-A5/GpH7-B3 variant I336_10E/GpL16-k0 (antibody, human IgG1, kappa)", "heavy 1": "not shown", "heavy 2": "not shown", "light": "B1 light", "notes": "also called He Ab"}, "B7": {"name": "GpH7-A5/GpH7-B3 variant I336_13S/GpL16-k0 (antibody, human IgG1, kappa)", "heavy 1": "not shown", "heavy 2": "not shown", "light": "B1 light", "notes": "also called He Ab"}, "B8": {"name": "GpH7-A5/GpH7-B3 variant I336_14T/GpL16-k0 (antibody, human IgG1, kappa)", "heavy 1": "not shown", "heavy 2": "not shown", "light": "B1 light", "notes": "also called He Ab"}, "B9": {"name": "GpH7-A5/GpH7-B3 variant I336_18N/GpL16-k0 (antibody, human IgG1, kappa)", "heavy 1": "not shown", "heavy 2": "not shown", "light": "B1 light", "notes": "also called He Ab"}, "B10": {"name": "GpH7-A5/GpH7-B3 variant K334_01G/GpL16-k0 (antibody, human IgG1, kappa)", "heavy 1": "not shown", "heavy 2": "not shown", "light": "B1 light", "notes": "also called He Ab"}, "B11": {"name": "GpH7-A5/GpH7-B3 variant K334_09D/GpL16-k0 (antibody, human IgG1, kappa)", "heavy 1": "not shown", "heavy 2": "not shown", "light": "B1 light", "notes": "also called He Ab"}, "B12": {"name": "GpH7-A5/GpH7-B3 variant Q295_02A/GpL16-k0 (antibody, human IgG1, kappa)", "heavy 1": "not shown", "heavy 2": "not shown", "light": "B1 light", "notes": "also called He Ab"}, "B13": {"name": "GpH7-A5/GpH7-B3 variant Q295_10E/GpL16-k0 (antibody, human IgG1, kappa)", "heavy 1": "not shown", "heavy 2": "not shown", "light": "B1 light", "notes": "also called He Ab"}, "B14": {"name": "GpH7-A5/GpH7-B3 variant Q295_14T/GpL16-k0 (antibody, human IgG1, kappa)", "heavy 1": "not shown", "heavy 2": "not shown", "light": "B1 light", "notes": "also called He Ab"}, "B15": {"name": "GpH7-A5/GpH7-B3 variant S298_02A/GpL16-k0 (antibody, human IgG1, kappa)", "heavy 1": "not shown", "heavy 2": "not shown", "light": "B1 light", "notes": "also called He Ab; GpH7-A5/GpH7-B3-15-02A/GpL16-k0"}, "B16": {"name": "GpH7-A5/GpH7-B3 variant S298_03V/GpL16-k0 (antibody, human IgG1, kappa)", "heavy 1": "not shown", "heavy 2": "not shown", "light": "B1 light", "notes": "also called He Ab"}, "B17": {"name": "GpH7-A5/GpH7-B3 variant S298_14T/GpL16-k0 (antibody, human IgG1, kappa)", "heavy 1": "not shown", "heavy 2": "not shown", "light": "B1 light", "notes": "also called He Ab"}, "B18": {"name": "GpH7-A5/GpH7-B3 variant S324_01G/GpL16-k0 (antibody, human IgG1, kappa)", "heavy 1": "not shown", "heavy 2": "not shown", "light": "B1 light", "notes": "also called He Ab"}, "B19": {"name": "GpH7-A5/GpH7-B3 variant S324_02A/GpL16-k0 (antibody, human IgG1, kappa)", "heavy 1": "not shown", "heavy 2": "not shown", "light": "B1 light", "notes": "also called He Ab"}, "B20": {"name": "GpH7-A5/GpH7-B3 variant S324_09D/GpL16-k0 (antibody, human IgG1, kappa)", "heavy 1": "not shown", "heavy 2": "not shown", "light": "B1 light", "notes": "also called He Ab"}, "B21": {"name": "GpH7-A5/GpH7-B3 variant S324_14T/GpL16-k0 (antibody, human IgG1, kappa)", "heavy 1": "not shown", "heavy 2": "not shown", "light": "B1 light", "notes": "also called He Ab"}, "B22": {"name": "GpH7-A5/GpH7-B3 variant S324_15Y/GpL16-k0 (antibody, human IgG1, kappa)", "heavy 1": "not shown", "heavy 2": "not shown", "light": "B1 light", "notes": "also called He Ab"}},
  "data": [
    {"biological_target": "T1, FcγRIIIa extracellular domain with C-terminal His tag (human, UniProt P08637 17-208)", "T1 construct": "extracellular domain; also called 3a; FcgRIIIa", "T1 sequence (P08637 17-208)": "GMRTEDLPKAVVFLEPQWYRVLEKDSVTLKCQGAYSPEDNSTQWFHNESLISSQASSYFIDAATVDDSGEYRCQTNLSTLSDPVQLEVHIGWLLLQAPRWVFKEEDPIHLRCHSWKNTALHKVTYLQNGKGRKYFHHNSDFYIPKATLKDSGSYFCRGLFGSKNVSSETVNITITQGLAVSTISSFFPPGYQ", "assay": "SPR, binding relative to GpH7-A5/GpH7-B3/GpL16-k0 = 100", "description": "(§1) The heterodimerized antibodies He Abs in which one of the H chains was introduced with an alteration were assayed for their binding activities to each activating FcγR and inhibitory FcγR according to the method described in Example 4. […] The activating FcγRs in FIGS. 26, 27, 28, and 29 are FcγRIa, FcγRIIa (R), FcγRIIa (H), and FcγRIIIa, respectively.\n(§2) Analysis of interaction between objective antibody and the FcγR was carried out using Biacore T100 (GE Healthcare). HBS-EP+ (GE Healthcare) was used as the running buffer, and the measurement temperature was set to 25° C. Chips produced by immobilizing the antigen peptide by the amine coupling method to a Series S Sencor Chip CM5 (GE Healthcare), or alternatively, chips produced by allowing preliminarily biotinylated antigen peptides to interact with and immobilize onto a Series S Sensor Chip SA (certified) (GE Healthcare) were used. Antibodies of interest were captured onto an antigen peptide-immobilized chip, and allowed to interact to each FcγR diluted with running buffer. To regenerate and repeatedly use the chip, the antibodies captured on the chip were washed off by reacting 10 mM glycine-HCl, pH 1.5.", "values": [
      {"binder": "B1", "He/Con_3a": "104 % of control"},
      {"binder": "B2", "He/Con_3a": "110 % of control"},
      {"binder": "B3", "He/Con_3a": "111 % of control"},
      {"binder": "B4", "He/Con_3a": "112 % of control"},
      {"binder": "B5", "He/Con_3a": "106 % of control"},
      {"binder": "B6", "He/Con_3a": "119 % of control"},
      {"binder": "B7", "He/Con_3a": "102 % of control"},
      {"binder": "B8", "He/Con_3a": "108 % of control"},
      {"binder": "B9", "He/Con_3a": "104 % of control"},
      {"binder": "B10", "He/Con_3a": "121 % of control"},
      {"binder": "B11", "He/Con_3a": "160 % of control"},
      {"binder": "B12", "He/Con_3a": "106 % of control"},
      {"binder": "B13", "He/Con_3a": "100 % of control"},
      {"binder": "B14", "He/Con_3a": "115 % of control"},
      {"binder": "B15", "He/Con_3a": "160 % of control"},
      {"binder": "B16", "He/Con_3a": "109 % of control"},
      {"binder": "B17", "He/Con_3a": "113 % of control"},
      {"binder": "B18", "He/Con_3a": "105 % of control"},
      {"binder": "B19", "He/Con_3a": "104 % of control"},
      {"binder": "B20", "He/Con_3a": "101 % of control"},
      {"binder": "B21", "He/Con_3a": "103 % of control"},
      {"binder": "B22", "He/Con_3a": "101 % of control"}
    ]},
    {"biological_target": "T2, FcγRIIb extracellular domain with C-terminal His tag (human, UniProt P31994 43-217)", "T2 construct": "extracellular domain; also called 2b; FcgRIIb", "T2 sequence (looked up)": "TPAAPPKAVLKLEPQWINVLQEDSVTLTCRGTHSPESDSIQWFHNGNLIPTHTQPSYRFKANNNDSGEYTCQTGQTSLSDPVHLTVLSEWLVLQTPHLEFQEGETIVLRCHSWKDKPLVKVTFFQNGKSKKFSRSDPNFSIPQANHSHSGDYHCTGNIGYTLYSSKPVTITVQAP", "assay": "SPR, binding relative to GpH7-A5/GpH7-B3/GpL16-k0 = 100", "description": "as §1, §2", "values": [
      {"binder": "B1", "He/Con_2b": "98.4 % of control"},
      {"binder": "B2", "He/Con_2b": "94.3 % of control"},
      {"binder": "B3", "He/Con_2b": "84.9 % of control"},
      {"binder": "B4", "He/Con_2b": "90.3 % of control"},
      {"binder": "B5", "He/Con_2b": "92.1 % of control"},
      {"binder": "B6", "He/Con_2b": "89.8 % of control"},
      {"binder": "B7", "He/Con_2b": "83.7 % of control"},
      {"binder": "B8", "He/Con_2b": "89.5 % of control"},
      {"binder": "B9", "He/Con_2b": "97.6 % of control"},
      {"binder": "B10", "He/Con_2b": "92.5 % of control"},
      {"binder": "B11", "He/Con_2b": "94.8 % of control"},
      {"binder": "B12", "He/Con_2b": "79.7 % of control"},
      {"binder": "B13", "He/Con_2b": "94.8 % of control"},
      {"binder": "B14", "He/Con_2b": "66.8 % of control"},
      {"binder": "B15", "He/Con_2b": "73.4 % of control"},
      {"binder": "B16", "He/Con_2b": "64.5 % of control"},
      {"binder": "B17", "He/Con_2b": "77.9 % of control"},
      {"binder": "B18", "He/Con_2b": "81.1 % of control"},
      {"binder": "B19", "He/Con_2b": "78.3 % of control"},
      {"binder": "B20", "He/Con_2b": "85.8 % of control"},
      {"binder": "B21", "He/Con_2b": "88.4 % of control"},
      {"binder": "B22", "He/Con_2b": "88.2 % of control"}
    ]}
  ]
}
